± gives the uncertainty stated by the source.
Experiment: self-splicing fitness, log relative to wild type (ln ratio); higher = more splicing; Tetrahymena group I intron in knt gene, E. coli kanamycin selection, DiMSum; sequences stand for … in CUCUCU…GGAGGGAAAAGUUAUCAGGCAUGCACCUGGUAGCUAGUCUUUAAACCAAUAGAUUGCAUCGGUUUAAAAGGCAAGACCGUCAAAUUGCGGGAAAGGGGUCAACAGCCGUUCAGUACCAAGUCUCAGGGGAAACUUUGAGAUGGCCUUGCAAAGGGUAUGGUAAUAAGCUGACGGACAUGGUCCUAACCACGCAGCCAAGUCCUAAGUCAACAGAUCUUCUGUUGAUAUGGAUGCAGUUCACAGACUAAAUGUCGGUCGGGGAAGAUGUAUUCUUCUCAUAAGAUAUAGUCGGACCUCUCCUUAAUGGGAGCUAGCGGAUGAAGUGAUGCAACACUGGAGCCGCUGGGAACUAAUUUGUAUGCGAAAGUAUAUUGAUUAGUUUUGGAGUACUCGUGGUCG
Summary of the method: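 Pooled colonies went to amplicon sequencing on an Illumina HiSeq 2500 after six replicate transformations. The plates were LB agar with 100 μg/mL carbenicillin, 50 μM IPTG and 0.2% rhamnose, with or without 25 μg/mL kanamycin, incubated overnight at 37°C or 30°C. The E. coli BL21(DE3) library had all eight P1ex-region intron nucleotides randomised, the intron placed in the knt kanamycin-resistance gene on pET-22b(+). DiMSum fitness is the error-weighted combination of replicate fold changes, kanamycin against none, normalised to wild type.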

| Sequence | self-splicing fitness (ln) (30 °C) | self-splicing fitness (ln) (37 °C) |
| --- | --- | --- |
| CGCCAGCAAUAUUACGCGGG | -4.25 ± 0.2 | -3.11 ± 0.24 |
| CGCCAGCAAUAUUACGGACU | -0.845 ± 0.066 | 0.157 ± 0.091 |
| CGCCAGCAAUAUUACGGGCA | -0.258 ± 0.095 | 0.189 ± 0.095 |
| CGCCAGCAAUAUUACGGGGG | -3 ± 0.16 | -2.17 ± 0.2 |
| CGCCAGCAAUAUUACGGUAC | -2.83 ± 0.095 | -1.52 ± 0.091 |
| CGCCAGCAAUAUUACGUAGC | -2.36 ± 0.17 | -3.11 ± 0.33 |
| CGCCAGCAAUAUUACGUAUG | -0.516 ± 0.055 | -0.0225 ± 0.074 |
| CGCCAGCAAUAUUACGUUGA | -2.84 ± 0.11 | -2.83 ± 0.13 |
| CGCCAGCAAUAUUACGUUGU | -3.62 ± 0.14 | -3.07 ± 0.15 |
| CGCGAGCAAUAUUACGAAUG | -1.9 ± 0.095 | -0.424 ± 0.13 |
| CGCGAGCAAUAUUACGAGCC | -3.49 ± 0.32 | -1.4 ± 0.28 |
| CGCGAGCAAUAUUACGAGGU | -2.22 ± 0.25 | -1.93 ± 0.23 |
| CGCGAGCAAUAUUACGAGUC | -2.7 ± 0.38 | -1.57 ± 0.29 |
| CGCGAGCAAUAUUACGAUGA | -3.39 ± 0.32 | -1.7 ± 0.18 |
| CGCGAGCAAUAUUACGAUUU | -3.35 ± 0.21 | -3.39 ± 0.24 |
| CGCGAGCAAUAUUACGCCGU | -3.93 ± 0.47 | -3.01 ± 0.4 |
| CGCGAGCAAUAUUACGCGAG | -3.97 ± 0.37 | -2.01 ± 0.41 |
| CGCGAGCAAUAUUACGCGUG | -2.29 ± 0.14 | -2.67 ± 0.15 |
| CGCGAGCAAUAUUACGCGUU | -3.07 ± 0.25 | -2.74 ± 0.34 |
| CGCGAGCAAUAUUACGCUGA | -2.03 ± 0.22 | -1.78 ± 0.35 |
| CGCGAGCAAUAUUACGGAUA | -1.66 ± 0.27 | – |
| CGCGAGCAAUAUUACGGCAU | -2.86 ± 0.17 | -1.43 ± 0.12 |
| CGCGAGCAAUAUUACGGCUA | -1.23 ± 0.15 | -1.98 ± 0.16 |
| CGCGAGCAAUAUUACGGGAU | -4.13 ± 0.23 | -2.59 ± 0.21 |

| Sequence | self-splicing fitness (ln) (30 °C) | self-splicing fitness (ln) (37 °C) |
| --- | --- | --- |
| CGCGAGCAAUAUUACGUCUG | -0.412 ± 0.067 | -0.178 ± 0.073 |
| CGCGAGCAAUAUUACGUGGA | -2.79 ± 0.16 | -3.01 ± 0.34 |
| CGCGAGCAAUAUUACGUGUU | -3.1 ± 0.15 | -2.75 ± 0.17 |
| CGCGAGCAAUAUUACGUUGG | -3.22 ± 0.17 | -2 ± 0.2 |
| CGCGAGCAAUAUUACGUUUC | -4.02 ± 0.27 | -2.06 ± 0.25 |
| CGCGAGCAAUAUUACGUUUU | -4.56 ± 0.46 | -2.17 ± 0.2 |
| CGCUAGCAAUAUUACGAACG | -2.16 ± 0.099 | -1.1 ± 0.11 |
| CGCUAGCAAUAUUACGAAUU | -2.77 ± 0.16 | -2.58 ± 0.28 |
| CGCUAGCAAUAUUACGACAC | -3.1 ± 0.23 | -1.33 ± 0.21 |
| CGCUAGCAAUAUUACGACUU | -2.41 ± 0.12 | -0.983 ± 0.15 |
| CGCUAGCAAUAUUACGAGUG | -2.91 ± 0.16 | -3.22 ± 0.17 |
| CGCUAGCAAUAUUACGAUAC | -3.07 ± 0.21 | -2.31 ± 0.16 |
| CGCUAGCAAUAUUACGAUCU | -0.867 ± 0.1 | -1.49 ± 0.11 |
| CGCUAGCAAUAUUACGCAUG | -2.04 ± 0.12 | -1.24 ± 0.16 |
| CGCUAGCAAUAUUACGCCGU | -0.129 ± 0.17 | -0.719 ± 0.18 |
| CGCUAGCAAUAUUACGCGCA | -1.81 ± 0.17 | -1.52 ± 0.17 |
| CGCUAGCAAUAUUACGCGCU | -3.85 ± 0.25 | -2.75 ± 0.22 |
| CGCUAGCAAUAUUACGCGGU | -3.4 ± 0.26 | -2.39 ± 0.21 |
| CGCUAGCAAUAUUACGUAUC | -3.84 ± 0.33 | -2.76 ± 0.31 |
| CGCUAGCAAUAUUACGUCCU | -1.59 ± 0.15 | -1.45 ± 0.17 |
| CGGAAGCAAUAUUACGAAAU | -3.59 ± 0.45 | -2.96 ± 0.31 |
| CGGAAGCAAUAUUACGAACU | -1.04 ± 0.1 | -0.0975 ± 0.12 |
| CGGAAGCAAUAUUACGAAUA | -2.53 ± 0.39 | – |
